Data on 8 molecules can be found in patent publication US9255256B2, “Expression of functional cytochorome P450 monooxygenase system in enterobacteria” (priority 1996, dated 2016).

Data set [1] relates to CYP3A4. The following applies: reconstituted system, Gillam et al (1993); cited from earlier work.
Data set [2] deals with CYP3A4. Briefly: Testosterone 6β-hydroxylase assay, bacterial membrane fractions. Format: biochemical, human. The following applies: in the presence of cumene hydroperoxide, no reductase.
Target sequence in this assay (P08684 19-503 limits assumed): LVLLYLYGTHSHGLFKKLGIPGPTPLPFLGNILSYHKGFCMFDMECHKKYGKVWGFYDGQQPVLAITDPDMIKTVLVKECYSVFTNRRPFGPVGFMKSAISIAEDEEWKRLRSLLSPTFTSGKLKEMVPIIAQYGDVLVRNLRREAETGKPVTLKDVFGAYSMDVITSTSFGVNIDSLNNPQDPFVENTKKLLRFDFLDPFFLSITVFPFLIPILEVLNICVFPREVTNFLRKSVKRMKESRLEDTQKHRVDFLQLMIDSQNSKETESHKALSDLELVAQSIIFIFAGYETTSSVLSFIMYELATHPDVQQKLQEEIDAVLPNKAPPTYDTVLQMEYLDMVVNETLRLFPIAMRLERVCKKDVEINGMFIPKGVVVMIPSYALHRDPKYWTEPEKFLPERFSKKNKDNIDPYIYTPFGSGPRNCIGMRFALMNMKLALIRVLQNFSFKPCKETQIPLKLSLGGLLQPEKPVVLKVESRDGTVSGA
Description: Assays were carried out with cells and membrane fractions. In both cases, approximately 100 pmol P450 was incubated with shaking in TSE containing 30 mM MgCl2. The final testosterone concentration was 0.2 mM. Where membranes were used, an NADPH generating system was is added (final concentration 1 mM NADP, 5 mM glucose-6-phosphate, 1 unit glucose-6-phosphate dehydrogenase). Reactions were carried out at 37° C. for 5 minutes, then stopped by addition of 1 ml ice-cold methanol and placed on ice for 10 minutes. Following centrifugation, supernatants were diluted with an equal volume of ice-cold water, and the testosterone metabolites extracted using Isolute C18 columns (IST Ltd), and eluted in 1 ml methanol. […] The yield of the 6β-hydroxytestosterone was calculated by reference to a standard of known concentration, and this allowed determination of the specific activity of the recombinant CYP3A4 towards testosterone.
Direct determination of the catalytic activity of the expressed proteins was not possible due to the absence of P450 reductase in bacterial membranes. The P450 enzyme activity was therefore determined in the presence of cumene hydroperoxide which serves as an artificial oxygen donor for P450s.
The target of data set [3] is T1, human P450 reductase fused at its N-terminus to the bacterial pelB leader sequence (bacterial; human) (UniProt P16435).
T1 sequence: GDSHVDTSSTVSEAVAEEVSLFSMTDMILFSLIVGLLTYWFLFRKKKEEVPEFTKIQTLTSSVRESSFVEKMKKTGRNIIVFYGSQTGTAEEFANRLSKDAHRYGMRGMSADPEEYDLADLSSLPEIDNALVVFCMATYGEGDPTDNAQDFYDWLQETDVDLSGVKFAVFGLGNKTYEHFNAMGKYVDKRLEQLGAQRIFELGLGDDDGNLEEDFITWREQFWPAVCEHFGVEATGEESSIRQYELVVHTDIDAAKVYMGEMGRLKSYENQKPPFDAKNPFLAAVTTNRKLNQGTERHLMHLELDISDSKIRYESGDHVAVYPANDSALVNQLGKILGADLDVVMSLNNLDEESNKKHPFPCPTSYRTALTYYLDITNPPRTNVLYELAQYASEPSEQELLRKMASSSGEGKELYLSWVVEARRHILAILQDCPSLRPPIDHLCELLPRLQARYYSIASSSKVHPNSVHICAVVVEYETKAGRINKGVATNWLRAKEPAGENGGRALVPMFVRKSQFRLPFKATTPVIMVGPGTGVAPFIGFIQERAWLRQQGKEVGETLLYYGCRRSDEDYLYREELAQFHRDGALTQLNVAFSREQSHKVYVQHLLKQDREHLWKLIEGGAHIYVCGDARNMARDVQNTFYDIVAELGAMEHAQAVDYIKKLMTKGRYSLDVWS
Briefly: cell-based or functional assay.

In data set [4] the target is bacterial flavodoxin/NADPH-flavodoxin reductase system or another bacterial reductase. Put plainly: cell-based or functional assay.
The subject of data set [5] is P450 reductase. Briefly: Cytochrome c reductase activity of bacterial membrane fractions. The note with it: membranes, expression from pCW, towards cytochrome c (FIG. 4).
Description: (§1) An equal volume of ice-cold distilled water was then added. The CYP3A4 content was determined using Fe^2—CO vs Fe^2+ difference spectra by adding 50 μl whole cell suspension in 1×TSE to 950 μl 100 mM Tris. Cl (pH 7.4), 10 mM CHAPS, 20% v/v glycerol, 1 mM EDTA and reducing by adding a few grains of sodium dithionite. A baseline of zero absorbance was recorded between 500 and 400 nm, then the sample cuvette was bubbled under a steady stream of CO for about 1 minute. A spectrum was then recorded and the yield of spectrally active CYP3A4/1 culture determined. At this stage, an aliquot of whole cells was withdrawn for metabolism studies. […] The CYP3A4 and reductase content of the membranes was determined. The yield of active reductase was evaluated by a spectrophotometric assay, as follows. To 990 μl 50 μM cytochrome c in 0.3 M potassium phosphate buffer (pH 7.7), 1-10 μg membrane protein was added, and a baseline recorded. 50 μM NADPH was added and ΔA550 nm was recorded over time. To determine the P450 contents of membranes, spectra were obtained as for whole cells.
In data set [6] the target is T2, P450 reductase (Homo sapiens, UniProt P16435).
T2 sequence (P16435 with tags, fused parts or gaps): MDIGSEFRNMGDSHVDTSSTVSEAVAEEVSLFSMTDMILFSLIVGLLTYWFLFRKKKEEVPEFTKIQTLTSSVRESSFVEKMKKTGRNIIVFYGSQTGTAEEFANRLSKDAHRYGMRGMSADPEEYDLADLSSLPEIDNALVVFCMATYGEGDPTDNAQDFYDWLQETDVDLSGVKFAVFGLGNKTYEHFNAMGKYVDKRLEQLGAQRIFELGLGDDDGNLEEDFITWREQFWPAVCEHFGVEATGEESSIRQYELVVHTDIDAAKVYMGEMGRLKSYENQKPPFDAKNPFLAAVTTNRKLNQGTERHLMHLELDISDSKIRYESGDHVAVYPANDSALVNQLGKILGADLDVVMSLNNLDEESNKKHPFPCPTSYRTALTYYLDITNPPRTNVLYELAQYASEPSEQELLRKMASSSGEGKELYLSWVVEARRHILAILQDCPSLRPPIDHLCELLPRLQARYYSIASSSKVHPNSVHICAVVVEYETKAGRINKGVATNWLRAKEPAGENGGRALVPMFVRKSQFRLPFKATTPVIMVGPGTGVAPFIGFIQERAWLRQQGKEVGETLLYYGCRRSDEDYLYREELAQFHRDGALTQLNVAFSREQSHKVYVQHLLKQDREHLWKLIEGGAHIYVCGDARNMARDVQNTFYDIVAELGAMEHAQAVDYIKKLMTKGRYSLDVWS
Description: as §1

In data set [7] the target is T3, human P450 reductase fused at its N-terminus to the bacterial pelB leader sequence, P16435.
T3 chain: T1 sequence

Data set [8] addresses T4, CYP2D6 (Homo sapiens, UniProt P10635).
T4 construct: in frame to the 5′-end of the full length P450 cDNA; made in house; host or cells: E. coli JM109, membrane fractions
Put plainly: Bufuralol 1′-hydroxylase assay, whole cells. Format: cell-based. On the procedure:
Assays on whole cells were carried out at 37° C. in 50 ml conical flasks, and contained 50 pmol CYP2D6, 50 μM (±)-bufuralol and 1×TSE buffer in a total volume of 5 ml. Samples (300 μl) were withdrawn at 0, 2, 5 and 10 min into tubes containing 15 μl of 60% perchloric acid on ice. Analysis then proceeded in an identical manner to the membrane assays (see above).

For data set [9], the target named is T4, CYP2D6. Format: biochemical. As to the method:
Assays on bacterial membrane fractions were carried out at 37° C. in 50 mM potassium phosphate buffer, pH 7.4, containing 20 or 50 pmol CYP2D6, 50 μM (±)-bufuralol, and a NADPH regenerating system (see Example 1) in a total volume of 300 μl. For membranes isolated from cells carrying pCW/ompA-CYP2D6 only (ie. no reductase co-expressed), the NADPH regenerating system was replaced by 100 μM cumene hydroperoxide. Reactions were stopped by the addition of 15 μl of 60% perchloric acid and placed on ice for 5-10 min. Precipitated proteins were removed by centrifugation, and then the supernatants were analysed for 1′-hydroxybufuralol by reversed-phase HPLC, with reference to authentic standard. Separation was achieved using a Spherisorb 5 μm ODS-2 column 25 cm×4.6 mm, and a mobile phase of 0.1 M ammonium acetate (pH 5.0) with a linear gradient of acetonitrile (27 to 51% in 12 min). Detection was by fluorescence using excitation and emission wavelengths of 252 and 302 nm, respectively.
For the determination of Michaelis-Menten kinetic parameters, incubations were carried out for 5 min with 20 pmol CYP2D6 and varying concentrations of substrate (0 to 100 μM). Km and νmax were estimated from double-reciprocal plots of initial reaction velocity versus substrate concentration.

Data set [10] concerns the target T1, human P450 reductase fused at its N-terminus to the bacterial pelB leader sequence (bacterial; human). Put plainly: cell-based or functional assay. The source holds these as a separate data set.

Where two headings read alike, the source gives them in different places.

With “bacterially-expressed CYP3A4: reconstituted system containing bacterially-expressed CYP3A4, Gillam et al (1993)”, the “turnover rates, testosterone 6β-hydroxylation” value in the data set on CYP3A4 [1] is “up to 10 nmol 6β-hydroxytestosterone/minute/nmol P450”.
In the case of “ompA-CYP3A4: CYP3A4 fused at its N-terminus to the bacterial ompA leader sequence”, the “turnover number for the 6β-hydroxylation of testosterone” value with CYP3A4 [2] worked out at 3.2 min⁻¹.
Regarding “17α-CYP3A4 (optimised CYP3A4 expressed from NF14 / pB216) (from UniProt P08684 1-503) (enzyme)”, in data set [3], the nifedipine oxidase turnover, JM109 pB216 whole cells came to 15.2 min^-1 and the testosterone 6β-hydroxylase turnover, JM109 pB216 whole cells is 17.3 min^-1. The molecule further displayed a testosterone 6β-hydroxylase turnover, JM109 NF14 whole cells (CYP3A4 alone) in data set [4] of under 0.5 min⁻¹.

B1: pelB-reductase: human P450 reductase fused at its N-terminus to the pelB leader sequence (protein)
chain: T1 sequence
modifications: left off: small tags and cut ends
Take B1: the “reductase activity compared to the native P450 reductase” value in the data set on P450 reductase [5] is listed as “almost ten fold higher”.

B2: ompA-CYP2D6 (protein)
chain: MGLEALVPLAVIVAIFLLLVDLMHRRQRWAARYPPGPLPLPGLGNLLHVDFQNTPYCFDQLRRRFGDVFSLQLAWTPVVVLNGLAAVREALVTHGEDTADRPPVPITQILGFGPRSQGVFLARYGPAWREQRRFSVSTLRNLGLGKKSLEQWVTEEAACLCAAFANHSGRPFRPNGLLDKAVSNVIASLTCGRRFEYDDPRFLRLLDLAQEGLKEESGFLREVLNAVPVLLHIPALAGKVLRFQKAFLTQLDELLTEHRMTWDPAQPPRDLTEAFLAEMEKAKGNPESSFNDENLRIVVADLFSAGMVTTSTTLAWGLLLMILHPDVQRRVQQEIDDVIGQVRRPEMGDQAHMPYTTAVIHEVQRFGDIVPLGVTHMTSRDIEVQGFRIPKGTTLITNLSSVLKDEAVWEKPFRFHPEHFLDAQGHFVKPEAFLPFSAGRRACLGEPLARMELFLFFTSLLQHFSFSVPTGQPRPSHHGVFAFLVSPSPYELCAVPR
Turning to B2, in the data set with P450 reductase [6], the “cytochrome c reductase activity” value was 530 nmol/min/mg. Besides, in data set [7], the “CYP2D6-dependent activities on co-expression” value is listed as “couples well with co-expressed reductase, catalysing typical CYP2D6-dependent activities”; the “Vmax of bufuralol 1'-hydroxylation, membranes co-expressing both” value was 13.3 min⁻¹; the “bufuralol 1'-hydroxylase specific activity” value was 1.2 nmoles/min/mg membrane protein; the “bufuralol 1'-hydroxylation turnover number, intact bacteria” value is “turnover numbers of 4.6 min^-1 and 5.7 min^-1 respectively”. In [7], the “bufuralol 1'-hydroxylation turnover number, membranes” value was “turnover numbers of 4.6 min^-1 and 5.7 min^-1 respectively”. The “bufuralol 1′-hydroxylase activity, intact E. coli” value with CYP2D6 [8] is given as 1.2 nmoles/min/mg protein. Also, the “turnover number, bufuralol hydroxylation, intact bacteria” value with CYP2D6 [8] (co-expressed with pelB-reductase, 50 μM bufuralol, no added NADPH) was found to be 4.6 min⁻¹. For the same molecule, the “bufuralol 1′-hydroxylase activity, fold higher than average of a panel of human liver microsomes” value in the data set with CYP2D6 [8] (intact E. coli) was “about 20 fold”. In the data set with CYP2D6 [9], the Km came out at 11.1 µM; the “Vmax, bufuralol 1′-hydroxylation” value is 13.3 min⁻¹; the “specific activity, bufuralol hydroxylation” value is listed as 1.2 nmoles/min/mg membrane protein; the “specific activity, fold higher than the value reported for human liver microsomes” value is 40 fold.

B3: 17α-CYP2A6 (protein)
chain: MLASGMLLVALLVCLTVMVLMSVWQQRKSKGKLPPGPTPLPFIGNYLQLNTEQMYNSLMKISERYGPVFTIHLGPRRVVVLCGHDAVREALVDQAEEFSGRGEQATFDWVFKGYGVVFSNGERAKQLRRFSIATLRDFGVGKRGIEERIQEEAGFLIDALRGTGGANIDPTFFLSRTVSNVISSIVFGDRFDYKDKEFLSLLRMMLGIFQFTSTSTGQLYEMFSSVMKHLPGPQQQAFQLLQGLEDFIAKKVEHNQRTLDPNSPRDFIDSFLIRMQEEEKNPNTEFYLKNLVMTTLNLFIGGTETVSTTLRYGFLLLMKHPEVEAKVHEEIDRVIGKNRQPKFEDRAKMPYMEAVIHEIQRFGDVIPMSLARRVKKDTKFRDFFLPKGTEVYPMLGSVLRDPSFFSNPQDFNPQHFLNEKGQFKKSDAFVPFSIGKRNCFGEGLARMELFLFFTTVMQNFRLKSSQSPKDIDVSPKHVGFATIPRNYTMSFLPR
Turning to B3, the coumarin 7-hydroxylase activity, shocked cells (nmol/min/nmol P450) in data set [3] stood at 0.75.

B4: ompA-CYP2A6 (enzyme, human)
chain: B3 chain
B4: the coumarin 7-hydroxylase activity, shocked cells (nmol/min/nmol P450) in data set [10] was under 0.02.

B5: ompA(+2)-CYP2A6 (enzyme, human)
chain: APMLASGMLLVALLVCLTVMVLMSVWQQRKSKGKLPPGPTPLPFIGNYLQLNTEQMYNSLMKISERYGPVFTIHLGPRRVVVLCGHDAVREALVDQAEEFSGRGEQATFDWVFKGYGVVFSNGERAKQLRRFSIATLRDFGVGKRGIEERIQEEAGFLIDALRGTGGANIDPTFFLSRTVSNVISSIVFGDRFDYKDKEFLSLLRMMLGIFQFTSTSTGQLYEMFSSVMKHLPGPQQQAFQLLQGLEDFIAKKVEHNQRTLDPNSPRDFIDSFLIRMQEEEKNPNTEFYLKNLVMTTLNLFIGGTETVSTTLRYGFLLLMKHPEVEAKVHEEIDRVIGKNRQPKFEDRAKMPYMEAVIHEIQRFGDVIPMSLARRVKKDTKFRDFFLPKGTEVYPMLGSVLRDPSFFSNPQDFNPQHFLNEKGQFKKSDAFVPFSIGKRNCFGEGLARMELFLFFTTVMQNFRLKSSQSPKDIDVSPKHVGFATIPRNYTMSFLPR
In data set [7], B5 showed a coumarin 7-hydroxylase activity, membranes of 1. The same molecule gave a coumarin 7-hydroxylase activity, shocked cells (nmol/min/nmol P450) in [10] of 0.29.

In general, Km refers to the substrate concentration at which the rate is half of its maximum.
